# Patent publication US20110044996A1 (published 2011)
# Biological target: T1, recombinant human GM-CSF (Peprotech) (human, UniProt P04141 18-144)
# Experiment: cell-based or functional assay
# T1 sequence (P04141 18-144 limits assumed): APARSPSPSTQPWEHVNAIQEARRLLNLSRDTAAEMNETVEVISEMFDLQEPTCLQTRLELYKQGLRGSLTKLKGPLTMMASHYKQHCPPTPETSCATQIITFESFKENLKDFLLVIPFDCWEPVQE
row,"EC50, TF-1 cell growth (3H-thymidine) with GM-CSF",Molecule
1,311 pM,"murine monoclonal antibody 4K21-O11-E14 (antibody, V domains shown, Murine hybridoma antibody (ECACC 07051601); also called 4K21-O11-E14 (mouse); mAb 4K21) VH: EVQLVESGGGLVKSGGSLKLSCAASGFAFSAYDMSWVRQTPEKRLELVAYISSGGSSFYYPDTVKGRFTISRDNAKNTLYLQMSSLKSEDTAMYYCTRHLGFDYWGQGTTLTVSS VL: DVVMTQTPLSLPVSLGDQASISCRSSQSLVNSNGNTYLHWFLQKPGQSPKLLIYKVSNRFSGVPDRFSGSGSGTDFTLKISRVEAEDLGVYFCSQSTHVPPTFGGGTKLEIK"
2,5130 pM,"hGM4/11 (antibody, V domains shown) VH: QVQLQESGGGLVKPGGSLKLSCAASGFAFSAYDMSWVRQTPDKRLEWVAYISSGGSSFYYPDTVKGRFTISRDNAKNTLYLQMSSLKSEDTAMYYCARHLGFDYWGQGTMVTVSS VL: DVVMTQSPLSLPVTPGEPASISCRSSQSLVNSNGNTYLHWYLQKPGQSPQLLIYKVSNRFSGVPDRFSGSGSGTDFTLKISRVEAEDVGVYYCSQSTHVPPTFGGGTKVEIK"
3,1190 pM,"hGM4/21 (antibody, V domains shown) VH: QVQLQESGGGLVKPGGSLKLSCAASGFAFSAYDMSWVRQTPDKRLELVAYISSGGSSFYYPDTVKGRFTISRDNAKNTLYLQMSSLKSEDTAMYYCARHLGFDYWGQGTMVTVSS VL: DVVMTQSPLSLPVTPGEPASISCRSSQSLVNSNGNTYLHWYLQKPGQSPQLLIYKVSNRFSGVPDRFSGSGSGTDFTLKISRVEAEDVGVYYCSQSTHVPPTFGGGTKVEIK"
4,2120 pM,"hGM4/22 (antibody, V domains shown) VH: QVQLQESGGGLVKPGGSLKLSCAASGFAFSAYDMSWVRQTPDKRLEWVAYISSGGSSFYYPDTVKGRFTISRDNAKNTLYLQMSSLKSEDTAMYYCTRHLGFDYWGQGTMVTVSS VL: DVVMTQSPLSLPVTPGEPASISCRSSQSLVNSNGNTYLHWYLQKPGQSPQLLIYKVSNRFSGVPDRFSGSGSGTDFTLKISRVEAEDVGVYYCSQSTHVPPTFGGGTKVEIK"
5,220 pM,"hGM4/34 (antibody, V domains shown) VH: QVQLQESGGGLVKPGGSLKLSCAASGFAFSAYDMSWVRQTPDKRLELVAYISSGGSSFYYPDTVKGRFTISRDNAKNTLYLQMSSLKSEDTAMYYCTRHLGFDYWGQGTMVTVSS VL: DVVMTQSPLSLPVTPGEPASISCRSSQSLVNSNGNTYLHWYLQKPGQSPQLLIYKVSNRFSGVPDRFSGSGSGTDFTLKISRVEAEDVGVYYCSQSTHVPPTFGGGTKVEIK"

# Biological target: T1, recombinant human GM-CSF (Peprotech)
# Experiment: SPR (BIAcore); recombinant human GM-CSF coated on CM5 chip, antibody injected at 66.7-4.17 nM
# Procedure: The binding kinetics of the 4K21 monoclonal antibody was determined using a Biacore and compared with the binding kinetics for a commercially available rat anti-human GM-CSF antibody from BD Biosciences (BD; Cat No. 554501) (see Table 1 below). Recombinant human GM-CSF was coated onto a CM5 chip to determine the binding kinetics of the 4K21 antibody. An uncoated flow cell was used as a reference. The antibody, prepared in HBS-EP at concentrations of 66.7 nM to 4.17 nM with 2-fold serial dilution, was injected for 2 minutes with a stabilisation time of 10 minutes and dissociation time of 15 minutes. The BIACore kinetic analysis wizard was run to determine each antibody's association (ka [1/Ms]), dissociation (kd[1/s]) and affinity (KD [nM]) to GM-CSF.
Ka,Kd,koff,kon,Molecule
> 5.2e+09 M⁻¹,< 190 pM,< 1e-05 s⁻¹,52000 M⁻¹ s⁻¹,commercially available rat anti-human GM-CSF antibody from BD Biosciences (Cat No. 554501)
> 5.9e+09 M⁻¹,< 170 pM,< 1e-05 s⁻¹,59000 M⁻¹ s⁻¹,"murine monoclonal antibody 4K21-O11-E14 (antibody, V domains shown, Murine hybridoma antibody (ECACC 07051601); also called 4K21-O11-E14 (mouse); mAb 4K21) VH: EVQLVESGGGLVKSGGSLKLSCAASGFAFSAYDMSWVRQTPEKRLELVAYISSGGSSFYYPDTVKGRFTISRDNAKNTLYLQMSSLKSEDTAMYYCTRHLGFDYWGQGTTLTVSS VL: DVVMTQTPLSLPVSLGDQASISCRSSQSLVNSNGNTYLHWFLQKPGQSPKLLIYKVSNRFSGVPDRFSGSGSGTDFTLKISRVEAEDLGVYFCSQSTHVPPTFGGGTKLEIK"

# Biological target: T1, recombinant human GM-CSF (Peprotech)
# Experiment: SPR (BIAcore); recombinant human GM-CSF coupled to CM5 chip, antibody injected at 66.7-4.17 nM
# Procedure: A second experiment was performed to determine the kinetics with which these antibodies bind to human GM-CSF. A range of antibody concentration was prepared in HBS-EP from 66.7 nM to 4.17 nM with 2-fold serial dilution. Again direct binding was quantitated using recombinant GM-CSF coupled to a CM5 chip—an uncoated flow cell was used as a reference. The antibody at each concentration was injected for 2 minutes with a stabilisation time of 10 minutes and dissociation time of 15 minutes. The BIACore kinetic analysis wizard was run to determine each antibody's association (ka [1/Ms]), dissociation (kd[1/s]) and affinity (KD [nM]) to GM-CSF.
Ka,Kd,koff,kon,Molecule
> 5.2e+09 M⁻¹,< 190 pM,< 1e-05 s⁻¹,52000 M⁻¹ s⁻¹,commercially available rat anti-human GM-CSF antibody from BD Biosciences (Cat No. 554501)
> 5.9e+09 M⁻¹,< 170 pM,< 1e-05 s⁻¹,59000 M⁻¹ s⁻¹,"murine monoclonal antibody 4K21-O11-E14 (antibody, V domains shown, Murine hybridoma antibody (ECACC 07051601); also called 4K21-O11-E14 (mouse); mAb 4K21) VH: EVQLVESGGGLVKSGGSLKLSCAASGFAFSAYDMSWVRQTPEKRLELVAYISSGGSSFYYPDTVKGRFTISRDNAKNTLYLQMSSLKSEDTAMYYCTRHLGFDYWGQGTTLTVSS VL: DVVMTQTPLSLPVSLGDQASISCRSSQSLVNSNGNTYLHWFLQKPGQSPKLLIYKVSNRFSGVPDRFSGSGSGTDFTLKISRVEAEDLGVYFCSQSTHVPPTFGGGTKLEIK"
7.7e+09 M⁻¹,130 pM,3.8e-05 s⁻¹,290000 M⁻¹ s⁻¹,"hGM4/1 (antibody, V domains shown, Heavy h4/10 with human gamma 1 constant (hG1), light h4a with human kappa constant (hKa); also called h4K21-1; 4K21-1) VH: QVQLQESGGGLVKPGGSLKLSCAASGFAFSAYDMSWVRQTPDKRLEWVAYISSGGSSFYYPDTVKGRFTISRDNAKNTLYLQMSSLKSEDTAMYYCARHLGFDYWGQGTMVTVSS VL: DVVMTQSPLSLPVTLGQPASISCRSSQSLVNSNGNTYLHWFQQRPGQSPRRLIYKVSNRFSGVPDRFSGSGSGTDFTLKISRVEAEDVGVYYCSQSTHVPPTFGGGTKVEIK"
1.2e+10 M⁻¹,81 pM,1.6e-05 s⁻¹,200000 M⁻¹ s⁻¹,"hGM4/6 (antibody, V domains shown, Heavy h4/10 with human gamma 1 constant (hG1), light h4b with human kappa constant (hKa); also called h4K21-6) VH: QVQLQESGGGLVKPGGSLKLSCAASGFAFSAYDMSWVRQTPDKRLEWVAYISSGGSSFYYPDTVKGRFTISRDNAKNTLYLQMSSLKSEDTAMYYCARHLGFDYWGQGTMVTVSS VL: DVVMTQSPLSLPVTLGQPASISCRSSQSLVNSNGNTYLHWFQQRPGQSPRRLIYKVSNRFSGVPDRFSGSGSGTDFTLKISRVEAEDVGVYYCSQSTHVPPTFGQGTKLEIK"
3.5e+09 M⁻¹,290 pM,4.7e-05 s⁻¹,160000 M⁻¹ s⁻¹,"hGM4/2 (antibody, V domains shown, Heavy h4/20 with human gamma 1 constant (hG1), light h4a with human kappa constant (hKa); also called h4K21-2) VH: EVQLVESGGGLVQPGGSLRLSCAASGFAFSAYDMSWVRQAPGKGLEWVSYISSGGSSFYYPDTVKGRFTISRDNAKNSLYLQMNSLRAEDTAVYYCARHLGFDYWGQGTLVTVSS VL: DVVMTQSPLSLPVTLGQPASISCRSSQSLVNSNGNTYLHWFQQRPGQSPRRLIYKVSNRFSGVPDRFSGSGSGTDFTLKISRVEAEDVGVYYCSQSTHVPPTFGGGTKVEIK"
7.1e+09 M⁻¹,140 pM,3e-05 s⁻¹,210000 M⁻¹ s⁻¹,"hGM4/3 (antibody, V domains shown, Heavy h4/30 with human gamma 1 constant (hG1), light h4a with human kappa constant (hKa); also called h4K21-3; 4K21-3) VH: EVQLVESGGGLVQPGGSLRLSCSASGFAFSAYDMSWVRQAPGKGLEWVAYISSGGSSFYYPDTVKGRFTISRDNAKNSLFLQMSSLRAEDTAVYYCARHLGFDYWGQGTTVTVSS VL: DVVMTQSPLSLPVTLGQPASISCRSSQSLVNSNGNTYLHWFQQRPGQSPRRLIYKVSNRFSGVPDRFSGSGSGTDFTLKISRVEAEDVGVYYCSQSTHVPPTFGGGTKVEIK"
7.6e+09 M⁻¹,130 pM,1.9e-05 s⁻¹,140000 M⁻¹ s⁻¹,"hGM4/5 (antibody, V domains shown, Heavy h4/50 with human gamma 1 constant (hG1), light h4a with human kappa constant (hKa); also called h4K21-5) VH: EVQLVESGGGLVKSGGSLTLSCAASGFAFSAYDMSWIRQAPGKGLEWVSYISSGGSSFYYPDTVKGRFTISRDNAKNSLYLQMNSLKDEDTAVYYCARHLGFDYWGQGTLVTVSS VL: DVVMTQSPLSLPVTLGQPASISCRSSQSLVNSNGNTYLHWFQQRPGQSPRRLIYKVSNRFSGVPDRFSGSGSGTDFTLKISRVEAEDVGVYYCSQSTHVPPTFGGGTKVEIK"

# Biological target: T1, recombinant human GM-CSF (Peprotech)
# Experiment: BIAcore, recombinant human GM-CSF amine-coupled to a CM5 chip, antibody at 1 ug/ml injected for 3 min
# Procedure: The binding affinity of the humanized antibodies was determined by BIACore analysis. Recombinant GM-CSF (Peprotech) at 100 μg/ml was prepared in sodium acetate, pH5, and immobilised to a CM5 sensor chip by amine coupling. Approximately 1200RU bound to the chip. The first experiment was to determine the binding activity of 15 humanized antibodies. These antibodies were prepared in HBS-EP at 1 μg/ml, injected for 3 minutes and compared to murine 4K21 and a commercially available anti GM-CSF antibody (BD).
row,binding result,Molecule
1,no binding (tested: 1 ug/ml),"hGM4/14 (antibody, V domains shown, also called h4K21-14; humanised 4K21-14) VH: EVQLVESGGGLVQPGGFLRLSCAASGFAFSAYDMSWVRQAPGKGLVWVSYISSGGSSFYYPDTVKGRFTISRDNAKNTLYLQMNSLRAEDTAMYYCTFHLGFDYWGQGTTVTVSS VL: DVVMTQSPLSLPVTPGEPASISCRSSQSLVNSNGNTYLHWYLQKPGQSPQLLIYKVSNRFSGVPDRFSGSGSGTDFTLKISRVEAEDVGVYYCSQSTHVPPTFGGGTKVEIK"
2,binds,"hGM4/15 (antibody, V domains shown, Heavy h4/50 with human gamma 1 constant (hG1), light h4c with human kappa constant (hKa); also called h4K21-15) VH: EVQLVESGGGLVKSGGSLTLSCAASGFAFSAYDMSWIRQAPGKGLEWVSYISSGGSSFYYPDTVKGRFTISRDNAKNSLYLQMNSLKDEDTAVYYCARHLGFDYWGQGTLVTVSS VL: DVVMTQSPLSLPVTPGEPASISCRSSQSLVNSNGNTYLHWYLQKPGQSPQLLIYKVSNRFSGVPDRFSGSGSGTDFTLKISRVEAEDVGVYYCSQSTHVPPTFGGGTKVEIK"
3,binds,"hGM4/13 (antibody, V domains shown, Heavy h4/30 with human gamma 1 constant (hG1), light h4c with human kappa constant (hKa); also called h4K21-13) VH: EVQLVESGGGLVQPGGSLRLSCSASGFAFSAYDMSWVRQAPGKGLEWVAYISSGGSSFYYPDTVKGRFTISRDNAKNSLFLQMSSLRAEDTAVYYCARHLGFDYWGQGTTVTVSS VL: DVVMTQSPLSLPVTPGEPASISCRSSQSLVNSNGNTYLHWYLQKPGQSPQLLIYKVSNRFSGVPDRFSGSGSGTDFTLKISRVEAEDVGVYYCSQSTHVPPTFGGGTKVEIK"
4,binds,"hGM4/12 (antibody, V domains shown, Heavy h4/20 with human gamma 1 constant (hG1), light h4c with human kappa constant (hKa); also called h4K21-12) VH: EVQLVESGGGLVQPGGSLRLSCAASGFAFSAYDMSWVRQAPGKGLEWVSYISSGGSSFYYPDTVKGRFTISRDNAKNSLYLQMNSLRAEDTAVYYCARHLGFDYWGQGTLVTVSS VL: DVVMTQSPLSLPVTPGEPASISCRSSQSLVNSNGNTYLHWYLQKPGQSPQLLIYKVSNRFSGVPDRFSGSGSGTDFTLKISRVEAEDVGVYYCSQSTHVPPTFGGGTKVEIK"
